Numbered stars: 1 amine (or outer) side, 2 acyl side, 3 side chain; on linkers, the order of the positions; unused ones are H or OH. Bridge positions count the residues as written; N and C are the ends. Side chains are listed from the residue outwards. Ends that are not written are not given here. * marks the point of attachment. C20 diacid = O=C(O)CCCCCCCCCCCCCCCCCCC(=O)*; γGlu = O=C(O)[C@H](CCC(=O)[*:2])N[*:1]
T1: human amylin receptor (human calcitonin receptor co-expressed with RAMP-3; amylin 3(a) receptor) (human, UniProt P30988 25-474; O60896 24-148, limits assumed)
T1 construct: whole, on cells; Used as cell membranes prepared from Amylin 3(a)/CRE-luc BHK cells (Assay V), not as intact cells; also called hAmylin-R; hAmylinR
T1 sequence (looked up) 1: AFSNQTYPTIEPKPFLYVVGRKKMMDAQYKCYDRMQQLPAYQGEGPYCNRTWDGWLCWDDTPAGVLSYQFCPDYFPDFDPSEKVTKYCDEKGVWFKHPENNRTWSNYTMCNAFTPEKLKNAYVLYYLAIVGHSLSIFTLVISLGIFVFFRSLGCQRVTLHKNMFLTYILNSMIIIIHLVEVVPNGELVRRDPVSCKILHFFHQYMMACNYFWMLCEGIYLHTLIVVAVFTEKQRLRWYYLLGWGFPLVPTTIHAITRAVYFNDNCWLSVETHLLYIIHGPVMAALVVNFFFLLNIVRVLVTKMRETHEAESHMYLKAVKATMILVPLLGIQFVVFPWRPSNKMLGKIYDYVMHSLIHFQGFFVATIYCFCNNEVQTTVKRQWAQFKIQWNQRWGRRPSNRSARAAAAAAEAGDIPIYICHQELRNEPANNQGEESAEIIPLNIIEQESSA
T1 sequence (looked up) 2: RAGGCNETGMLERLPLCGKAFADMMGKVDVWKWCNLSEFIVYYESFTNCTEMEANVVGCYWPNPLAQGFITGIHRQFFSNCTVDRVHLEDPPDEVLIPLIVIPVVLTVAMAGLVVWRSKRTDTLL

T2: human calcitonin receptor (human, UniProt P30988 25-474)
T2 construct: whole, on cells; Used as cell membranes prepared from the transfected BHK cells (Assay VII), not as intact cells; also called hCTR; hCT
T2 sequence (looked up): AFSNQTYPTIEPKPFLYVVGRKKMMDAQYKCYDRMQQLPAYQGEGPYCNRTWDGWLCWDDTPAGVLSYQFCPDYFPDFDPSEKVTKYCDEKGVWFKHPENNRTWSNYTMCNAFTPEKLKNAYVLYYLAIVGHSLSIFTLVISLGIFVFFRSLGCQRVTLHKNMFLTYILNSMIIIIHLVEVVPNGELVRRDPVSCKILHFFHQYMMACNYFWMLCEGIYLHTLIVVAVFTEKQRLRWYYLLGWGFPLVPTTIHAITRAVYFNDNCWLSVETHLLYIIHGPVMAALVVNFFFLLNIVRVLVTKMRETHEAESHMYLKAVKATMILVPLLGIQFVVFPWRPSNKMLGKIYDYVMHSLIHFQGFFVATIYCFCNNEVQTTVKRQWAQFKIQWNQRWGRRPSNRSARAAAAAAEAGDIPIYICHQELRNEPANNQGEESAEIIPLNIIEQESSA


How the values were obtained:
[1] = target: T1, human amylin receptor (human calcitonin …); test: ratio of hCTR binding IC50 to hAmylin-R binding IC50 (reference: human calcitonin receptor)
Protocol: The resulting pellet was resuspended, homogenized and centrifuged (20.000 rpm, 15 min) in a buffer containing 20 mM Na-HEPES and 0.1 mM EDTA (pH 7.4, buffer 2). The resulting pellet was resuspended in buffer 2 and protein concentration was measured (BCA protein Assay, Pierce). The homogenate was kept cold during the whole procedure. The membranes were kept at −80° C. until use. The assay was performed in a 384 well Optiplate (PerkinElmer) in a total volume of 40 ul. Membranes were mixed with SPA beads. Final concentration of membranes 35 ng/μL final and SPA beads was 0.05 mg/well. Test-compounds were dissolved in DMSO and further diluted in assay buffer (50 mM Hepes, pH 7.4, 1 mM CaCl2, 5 mM MgCl₂, 0.1% OA and 0.02% Tween20). […] The final mixture was incubated with shaking at 400 rpm for 120 min at 25° C. prior to centrifugation (1500 rpm, 10 min). Samples were analyzed on TopCounter™ (Packard). The IC₅₀ was calculated using (one site binding competition analysis) GraphPad Prism5 as a measure of receptor affinity.
Membranes were prepared in the following way; the cells were rinsed with PBS and incubated with Versene for approximately 5 min before harvesting. The cells were flushed with PBS and the cell-suspension was centrifuged for 5 min at 1000 rpm. Cells were homogenized (Ultrathurrax) in a buffer containing 20 mM Na-HEPES and 10 mM EDTA (pH 7.4) and centrifuged at 20.000 rpm for 15 min. The resulting pellet was resuspended, homogenized and centrifuged (20.000 rpm, 15 min) in a buffer containing 20 mM Na-HEPES and 0.1 mM EDTA (pH 7.4, buffer 2). The resulting pellet was resuspended in buffer 2 and protein concentration was measured (BCA protein Assay, Pierce). The homogenate was kept cold during the whole procedure. The membranes were kept at −80° C. until use. Assay was performed in a 384 well Optiplate (PerkinElmer) in a total volume of 40 ul. Membranes were mixed with SPA beads.

[2] = target: T2, human calcitonin receptor; test: SPA competition against 125I-calcitonin, membranes with human calcitonin receptor (Assay VII)
Procedure, shortened: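 BHK hCTR membranes 35 ng/μL + SPA beads 0.05 mg/well; buffer 50 mM Hepes pH 7.4, 1 mM CaCl2, 5 mM MgCl₂, 0.1% OA, 0.02% Tween20. 120 min, 25° C., shaking. Scintillation count; IC50 by one-site binding competition.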

Row | Binder | Ratio hCT/hAmylin binding [1] | IC50 [2] [nM]
1 | K([γGlu-C20 diacid])CNTATCATQRLARFLRHSSPNFGAIPSSTPVGSNTY-NH2 (disulfide 2-7; N-terminus assumed; SMILES CC[C@H](C)[C@H](NC(=O)[C@H](C)NC(=O)CNC(=O)[C@H](Cc1ccccc1)NC(=O)[C@H](CC(N)=O)NC(=O)[C@@H]1CCCN1C(=O)[C@H](CO)NC(=O)[C@H](CO)NC(=O)[C@H](Cc1c[nH]cn1)NC(=O)[C@H](CCCNC(=N)N)NC(=O)[C@H](CC(C)C)NC(=O)[C@H](Cc1ccccc1)NC(=O)[C@H](CCCNC(=N)N)NC(=O)[C@H](C)NC(=O)[C@H](CC(C)C)NC(=O)[C@H](CCCNC(=N)N)NC(=O)[C@H](CCC(N)=O)NC(=O)[C@@H](NC(=O)[C@H](C)NC(=O)[C@@H]1CSSC[C@H](NC(=O)[C@@H](N)CCCCNC(=O)CC[C@H](NC(=O)CCCCCCCCCCCCCCCCCCC(=O)O)C(=O)O)C(=O)N[C@@H](CC(N)=O)C(=O)N[C@@H]([C@@H](C)O)C(=O)N[C@@H](C)C(=O)N[C@@H]([C@@H](C)O)C(=O)N1)[C@@H](C)O)C(=O)N1CCC[C@H]1C(=O)N[C@@H](CO)C(=O)N[C@@H](CO)C(=O)N[C@H](C(=O)N1CCC[C@H]1C(=O)N[C@H](C(=O)NCC(=O)N[C@@H](CO)C(=O)N[C@@H](CC(N)=O)C(=O)N[C@H](C(=O)N[C@@H](Cc1ccc(O)cc1)C(N)=O)[C@@H](C)O)C(C)C)[C@@H](C)O, also called compound 63) | 157 | 130
2 | K([γGlu-C20 diacid])CNTATCATQRLANFLRHSSPNFGAIPSSTNVGSHTY-NH2 (disulfide 2-7; N-terminus assumed; SMILES CC[C@H](C)[C@H](NC(=O)[C@H](C)NC(=O)CNC(=O)[C@H](Cc1ccccc1)NC(=O)[C@H](CC(N)=O)NC(=O)[C@@H]1CCCN1C(=O)[C@H](CO)NC(=O)[C@H](CO)NC(=O)[C@H](Cc1c[nH]cn1)NC(=O)[C@H](CCCNC(=N)N)NC(=O)[C@H](CC(C)C)NC(=O)[C@H](Cc1ccccc1)NC(=O)[C@H](CC(N)=O)NC(=O)[C@H](C)NC(=O)[C@H](CC(C)C)NC(=O)[C@H](CCCNC(=N)N)NC(=O)[C@H](CCC(N)=O)NC(=O)[C@@H](NC(=O)[C@H](C)NC(=O)[C@@H]1CSSC[C@H](NC(=O)[C@@H](N)CCCCNC(=O)CC[C@H](NC(=O)CCCCCCCCCCCCCCCCCCC(=O)O)C(=O)O)C(=O)N[C@@H](CC(N)=O)C(=O)N[C@@H]([C@@H](C)O)C(=O)N[C@@H](C)C(=O)N[C@@H]([C@@H](C)O)C(=O)N1)[C@@H](C)O)C(=O)N1CCC[C@H]1C(=O)N[C@@H](CO)C(=O)N[C@@H](CO)C(=O)N[C@H](C(=O)N[C@@H](CC(N)=O)C(=O)N[C@H](C(=O)NCC(=O)N[C@@H](CO)C(=O)N[C@@H](Cc1c[nH]cn1)C(=O)N[C@H](C(=O)N[C@@H](Cc1ccc(O)cc1)C(N)=O)[C@@H](C)O)C(C)C)[C@@H](C)O, also called compound 60) [N^ε1-[(4S)-4-carboxy-4-(19-carboxynonadecanoylamino)butanoyl]-[Arg17,Pro21,Pro27,His35]-h-amylin] | 45.2 | 31.4
3 | K([γGlu-C20 diacid])CNTATCATQRLAEFLRHSSPNFGAIPSSTNVGSRTY-NH2 (disulfide 2-7; N-terminus assumed; SMILES CC[C@H](C)[C@H](NC(=O)[C@H](C)NC(=O)CNC(=O)[C@H](Cc1ccccc1)NC(=O)[C@H](CC(N)=O)NC(=O)[C@@H]1CCCN1C(=O)[C@H](CO)NC(=O)[C@H](CO)NC(=O)[C@H](Cc1c[nH]cn1)NC(=O)[C@H](CCCNC(=N)N)NC(=O)[C@H](CC(C)C)NC(=O)[C@H](Cc1ccccc1)NC(=O)[C@H](CCC(=O)O)NC(=O)[C@H](C)NC(=O)[C@H](CC(C)C)NC(=O)[C@H](CCCNC(=N)N)NC(=O)[C@H](CCC(N)=O)NC(=O)[C@@H](NC(=O)[C@H](C)NC(=O)[C@@H]1CSSC[C@H](NC(=O)[C@@H](N)CCCCNC(=O)CC[C@H](NC(=O)CCCCCCCCCCCCCCCCCCC(=O)O)C(=O)O)C(=O)N[C@@H](CC(N)=O)C(=O)N[C@@H]([C@@H](C)O)C(=O)N[C@@H](C)C(=O)N[C@@H]([C@@H](C)O)C(=O)N1)[C@@H](C)O)C(=O)N1CCC[C@H]1C(=O)N[C@@H](CO)C(=O)N[C@@H](CO)C(=O)N[C@H](C(=O)N[C@@H](CC(N)=O)C(=O)N[C@H](C(=O)NCC(=O)N[C@@H](CO)C(=O)N[C@@H](CCCNC(=N)N)C(=O)N[C@H](C(=O)N[C@@H](Cc1ccc(O)cc1)C(N)=O)[C@@H](C)O)C(C)C)[C@@H](C)O, also called compound 51) | 37.5 | 31.1
4 | K([γGlu-C20 diacid])CNTATCATQRLAHFLRHSSPNFGAIPSSTNVGSHTY-NH2 (disulfide 2-7; N-terminus assumed; SMILES CC[C@H](C)[C@H](NC(=O)[C@H](C)NC(=O)CNC(=O)[C@H](Cc1ccccc1)NC(=O)[C@H](CC(N)=O)NC(=O)[C@@H]1CCCN1C(=O)[C@H](CO)NC(=O)[C@H](CO)NC(=O)[C@H](Cc1c[nH]cn1)NC(=O)[C@H](CCCNC(=N)N)NC(=O)[C@H](CC(C)C)NC(=O)[C@H](Cc1ccccc1)NC(=O)[C@H](Cc1c[nH]cn1)NC(=O)[C@H](C)NC(=O)[C@H](CC(C)C)NC(=O)[C@H](CCCNC(=N)N)NC(=O)[C@H](CCC(N)=O)NC(=O)[C@@H](NC(=O)[C@H](C)NC(=O)[C@@H]1CSSC[C@H](NC(=O)[C@@H](N)CCCCNC(=O)CC[C@H](NC(=O)CCCCCCCCCCCCCCCCCCC(=O)O)C(=O)O)C(=O)N[C@@H](CC(N)=O)C(=O)N[C@@H]([C@@H](C)O)C(=O)N[C@@H](C)C(=O)N[C@@H]([C@@H](C)O)C(=O)N1)[C@@H](C)O)C(=O)N1CCC[C@H]1C(=O)N[C@@H](CO)C(=O)N[C@@H](CO)C(=O)N[C@H](C(=O)N[C@@H](CC(N)=O)C(=O)N[C@H](C(=O)NCC(=O)N[C@@H](CO)C(=O)N[C@@H](Cc1c[nH]cn1)C(=O)N[C@H](C(=O)N[C@@H](Cc1ccc(O)cc1)C(N)=O)[C@@H](C)O)C(C)C)[C@@H](C)O, also called compound 66) | 45.5 | 18
5 | K([γGlu-C20 diacid])CNTATCATQRLARFLRHSSPNFGAIPSSTNVGPNTY-NH2 (disulfide 2-7; N-terminus assumed; SMILES CC[C@H](C)[C@H](NC(=O)[C@H](C)NC(=O)CNC(=O)[C@H](Cc1ccccc1)NC(=O)[C@H](CC(N)=O)NC(=O)[C@@H]1CCCN1C(=O)[C@H](CO)NC(=O)[C@H](CO)NC(=O)[C@H](Cc1c[nH]cn1)NC(=O)[C@H](CCCNC(=N)N)NC(=O)[C@H](CC(C)C)NC(=O)[C@H](Cc1ccccc1)NC(=O)[C@H](CCCNC(=N)N)NC(=O)[C@H](C)NC(=O)[C@H](CC(C)C)NC(=O)[C@H](CCCNC(=N)N)NC(=O)[C@H](CCC(N)=O)NC(=O)[C@@H](NC(=O)[C@H](C)NC(=O)[C@@H]1CSSC[C@H](NC(=O)[C@@H](N)CCCCNC(=O)CC[C@H](NC(=O)CCCCCCCCCCCCCCCCCCC(=O)O)C(=O)O)C(=O)N[C@@H](CC(N)=O)C(=O)N[C@@H]([C@@H](C)O)C(=O)N[C@@H](C)C(=O)N[C@@H]([C@@H](C)O)C(=O)N1)[C@@H](C)O)C(=O)N1CCC[C@H]1C(=O)N[C@@H](CO)C(=O)N[C@@H](CO)C(=O)N[C@H](C(=O)N[C@@H](CC(N)=O)C(=O)N[C@H](C(=O)NCC(=O)N1CCC[C@H]1C(=O)N[C@@H](CC(N)=O)C(=O)N[C@H](C(=O)N[C@@H](Cc1ccc(O)cc1)C(N)=O)[C@@H](C)O)C(C)C)[C@@H](C)O, also called compound 65) | 82.4 | 53.5

From patent US20140087995A1 (published 2014)
